Measurements published in the DeepSol protein solubility set.

Test: soluble on expression in E. coli; label from the status in PepcDB or PDB records

Question: Which “soluble on expression in E. coli” value does the source give for “PLHHLMIGTWTPPGAIFTVQFDDEKLTCKLIKRTEIPQDEPISWMTFDHERKNIYGAAMKKWSSFAVKSPTEIVHEASHPIGGHPRANDADTNTRAIFLLAAKQPPYAVYANPFYKFAGYGNVFSVSETGKLEKNVQNYEYQENTGIHGMVFDPTETYLYSADLTANKLWTHRKLASGEVELVGSVDAPDPGDHPRWVAMHPTGNYLYALMEAGNRICEYVIDPATHMPVYTHHSFPLIPPGIPDRDPETGKGLYRADVCALTFSGKYMFASSRANKFELQGYIAGFKLRDCGSIEKQLFLSPTPTSGGHSNAVSPCPWSDEWMAITDDQEGWLEIYRWKDEFLHRVARVRIPEPGFGMNAIWYD” here?
Answer: soluble

Question: For “PLVCLADFKAHAQKQLSKTSWDFIEGEADDGITYSENIAAFKRIRLRPRYLRDMSKVDTRTTIQGQEISAPICISPTAFHSIAWPDGEKSTARAAQEANICYVISSYASYSLEDIVAAAPEGFRWFQLYMKSDWDFNKQMVQRAEALGFKALVITIDTPVLGNRRRDKRNQLNLEANILLKDLRALKEEKPTQSVPVSFPKASFCWNDLSLLQSITRLPIILKGILTKEDAELAMKHNVQGIVVSNHGGRQLDEVSASIDALREVVAAVKGKIEVYMDGGVRTGTDVLKALALGARCIFLGRPILWGLACKGEDGVKEVLDILTAELHRCMTLSGCQSVAEISPDLIQFSRL”, which “soluble on expression in E. coli” value is on record?
Answer: soluble

Question: With “PMLEVFYSGDRPPDRTRKQAFAAEASAIFQRVIGTPPGRLQLIIQIVSPENTLAVIDLDRPDSDTTAEPDQQ” as the sequence, how does the “soluble on expression in E. coli” value read?
Answer: soluble

Question: With “PPPAPIPDLKVFEREGVQLNLSFIRPPENPALLLITITATNFSEGDVTHFICQAAVPKSLQLQLQAPSGNTVPARGGLPITQLFRILNPNKAPLRLKLRLTYDHFHQSVQEIFEVNNLPVESWQ” as the sequence, how does the “soluble on expression in E. coli” value read?
Answer: soluble

Question: For “PQEEVVRLHASSGTTGKPTVVGYTQNDIDTWANVVARSIRAAGGRKGDKVHVSYGYGLFTGGLGAHYGAERLGCTVIPMSGGQTEKQVQLIRDFHPDIIMVTPSYMLNLADEIERQGIDPHDLKLRLGIFGAEPWTDELRRSIEQRMGINALDIYGLSEIMGPGVAMECIETKDGPTI”, which “soluble on expression in E. coli” value is on record?
Answer: not soluble

Question: For “PQEKVSRIHASSGTTGRPTVVGYTTGDLNNWADLVARSLRAGGVKPTDKVHVAYGYGLFTGGLGAHYGAERLGCTVIPMSGGMTDRQIQLIEDFEPDAIMVTPSYMLTIVDAMIKKGIDPSKTSLRTGVFGAEPWTEEMRTELEKQLNMDAVDIYGLSEVMGPGVAMECVDTKDGLHI”, which “soluble on expression in E. coli” value is on record?
Answer: not soluble

Question: Which “soluble on expression in E. coli” value does the source give for “PQQRRDIRFVWSGDTVGQGFGINPDIGGMRIYEAMRLRLPDFFIHSGDTIYADGPVPAQITAEGGRIWRNITTEAKSKVAETLDEYRGNYRYNLMDENLRRFNAEVPQIWQWDDHEVTNNWSPSKQLDDRYKVKDIQLLSSRARQAYLEYAPLRLQEADKGGRIYRKIPYGPMLDVFVLDMRSYRDGNDANLADKPGPTTAFMGCEQLDWLKRELDASTAQWKVIAADMPIGLGVPDGEVSPGVPRWEAIANGNDGPALGRELEIAELLAYLRAQKVRDCVWLTADVHYCAAHHYQPDLAVFQDFDPFWEFVAGPLNASSFGPNVLDKTFGPELVFQKAPPAQNTSPFAGYQFFGEVNIDGQTGEMSVALRDLDGVSVFERKLQP” here?
Answer: not soluble

Question: Which “soluble on expression in E. coli” value does the source give for “PSQVFKPLVSLFSPIEPSVYEARGRLPREQLGETRLDYDRTFQLASVEAARLGIAEPIGELYYSFEYNFFGAGFGDHDDPMGKSWLFFHGSDGRLLGQEVAGQGSWGERFYRLQYPIHGGRIAGLPGR” here?
Answer: not soluble

Question: For “PTSAPQHLTVEDVTDTTTTLKWRPPDRIGAGGIDGYLVEYCLEGSEEWVPANKEPVERCGFTVKDLPTGARILFRVVGVNIAGRSEPATLLQPVTIRE”, which “soluble on expression in E. coli” value is on record?
Answer: soluble

Question: Which “soluble on expression in E. coli” value does the source give for “PVLIVTPLEDQQVFVGDRVEMAVEVSEEGAQVMWMKNGVELTREDSFKARYRFKKDGKRHILIFSDVVQEDRGRYQVITNGGQCEAELIVEEKQ” here?
Answer: soluble

Question: Which “soluble on expression in E. coli” value does the source give for “PYAKGNFKAYEQELIGRFKHGESIHSDSIRFPDSLRYKTLVTGRTVYGGGGIMPDLFIPTDTALFNKLHRELLNKGIFNRAVLKYVDAHRQKLRQRFPDRQSYATFSIPEELTESLKAFAEAEKITWSTELFAQAEELIKCQLHAYIARDILGENDFFYFFNRMDKEYIKALDLLNDPDEYKRLLGK” here?
Answer: not soluble

Question: With “PYNKNGFKVGMKLEGVDPEHQSVYCVLTVAEVCGYRIKLHFDGYSDCYDFWVNADALDIHPVGWCEKTGHKLHPPKGYKEEEFNWQTYLKTCKAQAAPKSLFENQNITVIPSGF” as the sequence, how does the “soluble on expression in E. coli” value read?
Answer: soluble

Question: For “QADMPLERIIEAEKRVECNDPLVALVVNENNTTVNNICQATHKQLFQLVQWAKLVPHFTSLPLTDQVQLLRAGWNELLIAAFSHRSMQAQDAIVLATGLTVNKSTAHAVGVGNIYDRVPSELVNKMKEMKMDKTELGCLRAIILYNPDVRGIKSVQEVEMLREKIYGVLEEYTRTTHPNEPGRFAKLLLRLPALRSIGLKCLEHLFFFKLIGDVPIDTFLMEMLEGTTDS”, which “soluble on expression in E. coli” value is on record?
Answer: soluble

Question: Which “soluble on expression in E. coli” value does the source give for “QALEYSGTKRFVYVIDENNKATRQEVLLGARVDNEVVIESGVEIGDKIVVQGIVNMRDGVEVKEIVAPLKANTTDVTRNDSESVEEEN” here?
Answer: not soluble

Question: With “QAMKELSKSDRTRQFIIESTAPVFNVKGLAGTSLTDLTEATNLTKGSIYGNFENKEAVAIAAFDYNWGHVKSVLTAKVQACNTYKEMLLVYSSMYNDADGSLFPVGGCPLLNTTIEADDTHDALRKKAGEAILSWKKNLVTIIKKGIQAKEFRPDTDVTKIAFSMIALVEGAILIHRATKNRAYSDYVFESLEDLIAGIEVKKK” as the sequence, how does the “soluble on expression in E. coli” value read?
Answer: soluble

Question: Which “soluble on expression in E. coli” value does the source give for “QDNALKQVAAMAKIADRYVSAWGSEAQVEDDTIRRLLASLGYDTSSDDALLQSAEKKHKKDVVDPVLVVHQGSAIEVPLYLGVSARESEFDWRLQTEQGEVLEGYLQSQIVRDERAEGGPLVFALPNDLPLGYHTLLIARKRRKAPYEMTLIVTPQACYKQPALAQ” here?
Answer: not soluble

Question: For “QGALYLVPTPIGNLEDMTFRAIRMLKEADIIAAEDTRNTVKLLNHFEITTRMTSYHQFTKENKEDNIIQRMLDGEVVALVSDAGMPSISDPGYELVQNALNANIPVIPLPGA”, which “soluble on expression in E. coli” value is on record?
Answer: not soluble

Question: With “QGIETVTKANGYETLLAHFSYDELEEERKIASLLSYQVDGLILTESHHTPRTLQMIKNAGVPVVETMELPPQPIDMAVGLDHEDASYNAVKRMLDAGKRTIVYFGARLDTRTKLRMQGYDRAMNEAGLEPKHVLTGVHSSFSLAHDLLERALKTYPTLDGVFCTNDDIAIGTMLSAQQRGIQVPQQLAVVGYNALDIGQTISPKLTSVDTPRFQIGVKSAELLIARLKGEAQEEKVFDMGYQITSGESV” as the sequence, how does the “soluble on expression in E. coli” value read?
Answer: not soluble

Question: With “QLTRERLTATSRYKLSSSDTFRVIGNPEPREGKLRMQVQLTGGSSPSYILYIRHEGEYEPVARGDMLKLRKFYARSVEEWEQKAPAMGRYMAGKGLSGSLHAKTGDVEILSTAKGPFSLRQKALDLSDRLAATLYELSPSLLSDSRRAMLEAMCLGREGEAPDVRRKFVAAGVAH” as the sequence, how does the “soluble on expression in E. coli” value read?
Answer: not soluble

Question: With “QNTLAENQFNQRRTIETTLMGSIISAFRARGDAGAREILTEWKDSPVSSGVYVIQGDEKKDILNRYIDSYTIERARLFAAGHPHSNLVHIEYDRFGEEYLFFTKDWDKLQARRLPSPLLIPGLPLAPIWHE” as the sequence, how does the “soluble on expression in E. coli” value read?
Answer: not soluble

Question: For “QPKTFTVRIVTMDAEMEFNCEMKWKGKDLFDLVCRTLGLRETWFFGLQYTIKDTVAWLKMDKKVLDHDVSKEEPVTFHFLAKFYPENAEEELVQEITQHLFFLQVKKQILDEKVYCPPEASVLLASYAVQAKYGDYDPSVHKRGFLAQEELLPKRVINLYQMTPEMWEERITAWYAEHRGRARDEAEMEYLKIAQDLEMYGVNYFTIRNKKGTELLLGVDALGLHIYDPENRLTPKISFPWNEIRNISYSDKEFTIKPLDKKIDVFKFNSSKLRVNKLILQLCIGNHDLFMRRRKADSLEVQQMKAQAREEKARKQMERQRLA”, which “soluble on expression in E. coli” value is on record?
Answer: soluble

Question: For “QQIGLKTNLLYWGTTTPNAGLEFRMGKKWTLDVSGGYNPFTFSHHRKLKHWLVAPELRYWTCEAFSGHFFGLHGIGGEYNVNDIDIPIGRLKKLNNYRYE”, which “soluble on expression in E. coli” value is on record?
Answer: not soluble
